{
  "source": "paper PMC4350885",
  "biological_target": "Deinococcus radiodurans DNA polymerase III β subunit (β-clamp), short version of 362 amino acids (Deinococcus radiodurans strain R1)",
  "test": "SEC; Superdex 75 10/30, purified Drβ-clamp, size and tertiary structure analysis",
  "data": [
    {"substance": "Deinococcus radiodurans DNA polymerase III β subunit (β-clamp), short version of 362 amino acids (natural protein)", "values": [
      {"measurement": "stoichiometry N", "result": 2}
    ]}
  ]
}
